In patent US11325966:

Legend:
Test in all cases: cell-based or functional assay
[1] = target: HIV-1 Env of pseudovirus 0815.v3.c3 (HIV-1)
[2] = target: HIV-1 Env of pseudovirus 1012_11_TC21_3257 (HIV-1)
[3] = target: HIV-1 Env of pseudovirus 191955_A11 (HIV-1)
[4] = target: HIV-1 Env of pseudovirus 231965.c01 (HIV-1)
[5] = target: HIV-1 Env of pseudovirus 235-47 (HIV-1)
[6] = target: HIV-1 Env of pseudovirus 246F C1G (HIV-1)
[7] = target: HIV-1 Env of pseudovirus 3016.v5.c45 (HIV-1)
[8] = target: HIV-1 Env of pseudovirus 3817.v2.c59 (HIV-1)
[9] = target: HIV-1 Env of pseudovirus 6545.v4.c1 (HIV-1)
[10] = target: HIV-1 Env of pseudovirus 89-F1_2_25 (HIV-1)
[11] = target: HIV-1 Env of pseudovirus 9004SS_A3_4 (HIV-1)
[12] = target: HIV-1 Env of pseudovirus BJOX010000.06.2 (HIV-1)
[13] = target: HIV-1 Env of pseudovirus BJOX028000.10.3 (HIV-1)
[14] = target: HIV-1 Env of pseudovirus C1080.c03 (HIV-1)
[15] = target: HIV-1 Env of pseudovirus C2101.c01 (HIV-1)
[16] = target: HIV-1 Env of pseudovirus CAAN5342.A2 (HIV-1)
[17] = target: HIV-1 Env of pseudovirus CNE17 (HIV-1)
[18] = target: HIV-1 Env of pseudovirus CNE19 (HIV-1)
[19] = target: HIV-1 Env of pseudovirus CNE20 (HIV-1)
[20] = target: HIV-1 Env of pseudovirus CNE21 (HIV-1)
[21] = target: HIV-1 Env of pseudovirus CNE52 (HIV-1)
[22] = target: HIV-1 Env of pseudovirus Ce2010_F5 (HIV-1)
[23] = target: HIV-1 Env of pseudovirus Du172.17 (HIV-1)
[24] = target: HIV-1 Env of pseudovirus Du422.1 (HIV-1)
[25] = target: HIV-1 Env of pseudovirus HIV-0013095-2.11 (HIV-1)
[26] = target: HIV-1 Env of pseudovirus P0402_c2_11 (HIV-1)
[27] = target: HIV-1 Env of pseudovirus Q769.d22 (HIV-1)
[28] = target: HIV-1 Env of pseudovirus R1166.c01 (HIV-1)
[29] = target: HIV-1 Env of pseudovirus R2184.c04 (HIV-1)
[30] = target: HIV-1 Env of pseudovirus REJO4541.67 (HIV-1)
[31] = target: HIV-1 Env of pseudovirus T250-4 (HIV-1)
[32] = target: HIV-1 Env of pseudovirus T251-18 (HIV-1)
[33] = target: HIV-1 Env of pseudovirus THRO4156.18 (HIV-1)
[34] = target: HIV-1 Env of pseudovirus TRJO4551.58 (HIV-1)
[35] = target: HIV-1 Env of pseudovirus X2088_c9 (HIV-1)
[36] = target: HIV-1 Env of pseudovirus X2131_C1_B5 (HIV-1)
[37] = target: HIV-1 Env of pseudovirus ZM197M.PB7 (HIV-1)
[38] = target: HIV-1 Env of pseudovirus ZM214M.PL15 (HIV-1)
[39] = target: HIV-1 Env of pseudovirus ZM233M.PB6 (HIV-1)
[40] = target: HIV-1 Env of pseudovirus ZM53M.PB12 (HIV-1)

How did the IC50 in TZM-bl assay [1] turn out when PGT121 (antibody) was run?
The IC50 in TZM-bl assay was 0.017 µg/mL.

And the IC80 in TZM-bl assay [1]?
The IC80 in TZM-bl assay was 0.085 µg/mL.

What about the IC50 in TZM-bl assay [2] of the same substance?
Its IC50 in TZM-bl assay is 0.008 µg/mL.

What about the IC80 in TZM-bl assay [2] of the same substance?
Its IC80 in TZM-bl assay is 0.034 µg/mL.

What about the IC50 in TZM-bl assay [3] of the same substance?
The IC50 in TZM-bl assay was greater than 10 µg/mL.

What about the IC80 in TZM-bl assay [3] of the same substance?
Its IC80 in TZM-bl assay is greater than 10 µg/mL.

And the IC50 in TZM-bl assay [4]?
Its IC50 in TZM-bl assay is greater than 10 µg/mL.

What about the IC80 in TZM-bl assay [4] of the same substance?
The IC80 in TZM-bl assay was greater than 10 µg/mL.

And the IC50 in TZM-bl assay [5]?
The IC50 in TZM-bl assay was 0.259 µg/mL.

And the IC80 in TZM-bl assay [5]?
The IC80 in TZM-bl assay was 1.6 µg/mL.

And the IC50 in TZM-bl assay [6]?
The IC50 in TZM-bl assay was 0.082 µg/mL.

And the IC80 in TZM-bl assay [6]?
The IC80 in TZM-bl assay was 0.363 µg/mL.

What about the IC50 in TZM-bl assay [7] of the same substance?
Its IC50 in TZM-bl assay is greater than 10 µg/mL.

What about the IC80 in TZM-bl assay [7] of the same substance?
The IC80 in TZM-bl assay was greater than 10 µg/mL.

What about the IC50 in TZM-bl assay [8] of the same substance?
Its IC50 in TZM-bl assay is greater than 10 µg/mL.

And the IC80 in TZM-bl assay [8]?
Its IC80 in TZM-bl assay is greater than 10 µg/mL.

And the IC50 in TZM-bl assay [9]?
Its IC50 in TZM-bl assay is greater than 10 µg/mL.

What about the IC80 in TZM-bl assay [9] of the same substance?
Its IC80 in TZM-bl assay is greater than 10 µg/mL.

What about the IC50 in TZM-bl assay [10] of the same substance?
The IC50 in TZM-bl assay was greater than 10 µg/mL.

What about the IC80 in TZM-bl assay [10] of the same substance?
The IC80 in TZM-bl assay was greater than 10 µg/mL.

What about the IC50 in TZM-bl assay [11] of the same substance?
The IC50 in TZM-bl assay was 0.006 µg/mL.

And the IC50 in TZM-bl assay [12]?
Its IC50 in TZM-bl assay is greater than 10 µg/mL.

What about the IC80 in TZM-bl assay [12] of the same substance?
The IC80 in TZM-bl assay was greater than 10 µg/mL.

And the IC50 in TZM-bl assay [13]?
Its IC50 in TZM-bl assay is greater than 10 µg/mL.

And the IC80 in TZM-bl assay [13]?
Its IC80 in TZM-bl assay is greater than 10 µg/mL.

What about the IC50 in TZM-bl assay [14] of the same substance?
Its IC50 in TZM-bl assay is greater than 10 µg/mL.

And the IC80 in TZM-bl assay [14]?
The IC80 in TZM-bl assay was greater than 10 µg/mL.

What about the IC50 in TZM-bl assay [15] of the same substance?
The IC50 in TZM-bl assay was greater than 10 µg/mL.

What about the IC80 in TZM-bl assay [15] of the same substance?
The IC80 in TZM-bl assay was greater than 10 µg/mL.

And the IC50 in TZM-bl assay [16]?
Its IC50 in TZM-bl assay is 0.008 µg/mL.

And the IC80 in TZM-bl assay [16]?
The IC80 in TZM-bl assay was 0.026 µg/mL.

And the IC50 in TZM-bl assay [17]?
The IC50 in TZM-bl assay was 3.96 µg/mL.

And the IC80 in TZM-bl assay [17]?
Its IC80 in TZM-bl assay is greater than 10 µg/mL.

And the IC80 in TZM-bl assay [18]?
Its IC80 in TZM-bl assay is 0.083 µg/mL.

And the IC50 in TZM-bl assay [19]?
The IC50 in TZM-bl assay was 0.003 µg/mL.

And the IC80 in TZM-bl assay [19]?
Its IC80 in TZM-bl assay is 0.006 µg/mL.

What about the IC50 in TZM-bl assay [20] of the same substance?
The IC50 in TZM-bl assay was 0.009 µg/mL.

And the IC80 in TZM-bl assay [20]?
The IC80 in TZM-bl assay was 0.031 µg/mL.

And the IC50 in TZM-bl assay [21]?
The IC50 in TZM-bl assay was 4.91 µg/mL.

And the IC80 in TZM-bl assay [21]?
Its IC80 in TZM-bl assay is greater than 10 µg/mL.

What about the IC50 in TZM-bl assay [22] of the same substance?
The IC50 in TZM-bl assay was greater than 10 µg/mL.

And the IC80 in TZM-bl assay [22]?
Its IC80 in TZM-bl assay is greater than 10 µg/mL.

And the IC50 in TZM-bl assay [23]?
The IC50 in TZM-bl assay was 0.062 µg/mL.

What about the IC80 in TZM-bl assay [23] of the same substance?
Its IC80 in TZM-bl assay is 0.531 µg/mL.

And the IC50 in TZM-bl assay [24]?
Its IC50 in TZM-bl assay is 0.017 µg/mL.

And the IC80 in TZM-bl assay [24]?
Its IC80 in TZM-bl assay is 0.088 µg/mL.

What about the IC50 in TZM-bl assay [25] of the same substance?
The IC50 in TZM-bl assay was greater than 10 µg/mL.

And the IC80 in TZM-bl assay [25]?
The IC80 in TZM-bl assay was greater than 10 µg/mL.

And the IC50 in TZM-bl assay [26]?
Its IC50 in TZM-bl assay is 0.007 µg/mL.

What about the IC50 in TZM-bl assay [27] of the same substance?
The IC50 in TZM-bl assay was greater than 10 µg/mL.

What about the IC80 in TZM-bl assay [27] of the same substance?
Its IC80 in TZM-bl assay is greater than 10 µg/mL.

And the IC50 in TZM-bl assay [28]?
Its IC50 in TZM-bl assay is greater than 10 µg/mL.

And the IC80 in TZM-bl assay [28]?
The IC80 in TZM-bl assay was greater than 10 µg/mL.

What about the IC50 in TZM-bl assay [29] of the same substance?
Its IC50 in TZM-bl assay is greater than 10 µg/mL.

And the IC80 in TZM-bl assay [29]?
The IC80 in TZM-bl assay was greater than 10 µg/mL.

What about the IC50 in TZM-bl assay [30] of the same substance?
The IC50 in TZM-bl assay was greater than 10 µg/mL.

And the IC80 in TZM-bl assay [30]?
The IC80 in TZM-bl assay was greater than 10 µg/mL.

And the IC50 in TZM-bl assay [31]?
Its IC50 in TZM-bl assay is 0.003 µg/mL.

And the IC80 in TZM-bl assay [31]?
The IC80 in TZM-bl assay was 0.009 µg/mL.

What about the IC50 in TZM-bl assay [32] of the same substance?
Its IC50 in TZM-bl assay is 5.18 µg/mL.

What about the IC80 in TZM-bl assay [32] of the same substance?
Its IC80 in TZM-bl assay is greater than 10 µg/mL.

What about the IC50 in TZM-bl assay [33] of the same substance?
The IC50 in TZM-bl assay was greater than 10 µg/mL.

What about the IC80 in TZM-bl assay [33] of the same substance?
Its IC80 in TZM-bl assay is greater than 10 µg/mL.

What about the IC50 in TZM-bl assay [34] of the same substance?
The IC50 in TZM-bl assay was 0.802 µg/mL.

And the IC80 in TZM-bl assay [34]?
The IC80 in TZM-bl assay was greater than 10 µg/mL.

What about the IC50 in TZM-bl assay [35] of the same substance?
Its IC50 in TZM-bl assay is 0.007 µg/mL.

And the IC80 in TZM-bl assay [36]?
Its IC80 in TZM-bl assay is 0.037 µg/mL.

What about the IC50 in TZM-bl assay [37] of the same substance?
The IC50 in TZM-bl assay was greater than 10 µg/mL.

What about the IC80 in TZM-bl assay [37] of the same substance?
Its IC80 in TZM-bl assay is greater than 10 µg/mL.

And the IC50 in TZM-bl assay [38]?
Its IC50 in TZM-bl assay is 0.288 µg/mL.

And the IC80 in TZM-bl assay [38]?
Its IC80 in TZM-bl assay is 2.46 µg/mL.

And the IC50 in TZM-bl assay [39]?
Its IC50 in TZM-bl assay is 2.81 µg/mL.

And the IC80 in TZM-bl assay [39]?
The IC80 in TZM-bl assay was greater than 10 µg/mL.

And the IC50 in TZM-bl assay [40]?
Its IC50 in TZM-bl assay is 0.001 µg/mL.

What about the IC80 in TZM-bl assay [40] of the same substance?
Its IC80 in TZM-bl assay is 0.005 µg/mL.
